Measurements from paper doi:10.1101/2024.09.25.614871v2.

How the values were obtained:
purified protein = substrate: CC(C)(COP(=O)(O)OP(=O)(O)OC[C@H]1O[C@@H](n2cnc3c(N)ncnc32)[C@H](O)[C@@H]1OP(=O)(O)O)[C@@H](O)C(=O)NCCC(=O)NCCSC(=O)C[C@H](O)C(=O)O; assay: purified protein; assay type: biochemical, Sus scrofa; conditions: pH 7.5, 37 °C, 100 mM Tris
[1] = substrate: O=C(O)C[C@H](O)C(=O)O; assay: PK/LDH-coupled NADH consumption; assay type: biochemical, Homo sapiens; conditions: 0.1 mM CoA, 7 mM MgCl2, pH 7.5, 30 °C
[2] = substrate: C=C(CC(=O)O)C(=O)O; assay: PK/LDH-coupled NADH consumption; assay type: biochemical, Homo sapiens; conditions: 0.1 mM CoA, 7 mM MgCl2, pH 7.5, 30 °C

B1: citrate synthase (CS) (Sus scrofa) (protein)
chain: ASSTNLKDILADLIPKEQARIKTFRQQHGNTVVGQITVDMMYGGMRGMKGLVYETSVLDPDEGIRFRGYSIPECQKMLPKAKGGEEPLPEGLFWLLVTGQIPTEEQVSWLSKEWAKRAALPSHVVTMLDNFPTNLHPMSQLSAAITALNSESNFARAYAEGIHRTKYWELIYEDCMDLIAKLPCVAAKIYRNLYREGSSIGAIDSKLDWSHNFTNMLGYTDAQFTELMRLYLTIHSDHEGGNVSAHTSHLVGSALSDPYLSFAAAMNGLAGPLHGLANQEVLVWLTQLQKEVGKDVSDEKLRDYIWNTLNSGRVVPGYGHAVLRKTDPRYTCQREFALKHLPHDPMFKLVAQLYKIVPNVLLEQGKAKNPWPNVDAHSGVLLQYYGMTEMNYYTVLFGVSRALGVLAQLIWSRALGFPLERPKSMSTDGLIKLVDSK
Km (purified protein): 106 µM

B2: SUCL (GDP-forming), SUCLG1:SUCLG2 complex (Homo sapiens) (protein)
chain 1: not shown
chain 2: LNLQEYQSKKLMSDNGVRVQRFFVADTANEALEAAKRLNAKEIVLKAQILAGGRGKGVFNSGLKGGVHLTKDPNVVGQLAKQMIGYNLATKQTPKEGVKVNKVMVAEALDISRETYLAILMDRSCNGPVLVGSPQGGVDIEEVAASNPELIFKEQIDIFEGIKDSQAQRMAENLGFVGPLKSQAADQITKLYNLFLKIDATQVEVNPFGETPEGQVVCFDAKINFDDNAEFRQKDIFAMDDKSENEPIENEAAKYDLKYIGLDGNIACFVNGAGLAMATCDIIFLNGGKPANFLDLGGGVKEAQVYQAFKLLTADPKVEAILVNIFGGIVNCAIIANGITKACRELELKVPLVVRLEGTNVQEAQKILNNSGLPITSAIDLED
Km ([1]; 0.6 mM GTP): 1900 ± 300 µM
kcat ([1]; 0.6 mM GTP): 0.18 ± 0.02 s⁻¹
Km ([2]; 0.6 mM GTP): 1500 ± 200 µM
kcat ([2]; 0.6 mM GTP): 5.3 ± 0.2 s⁻¹

B3: SUCL (ADP-forming), SUCLG1:SUCLA2 complex (Homo sapiens) (protein)
chain 1: not shown
chain 2: LSLHEYMSMELLQEAGVSVPKGYVAKSPDEAYAIAKKLGSKDVVIKAQVLAGGRGKGTFESGLKGGVKIVFSPEEAKAVSSQMIGKKLFTKQTGEKGRICNQVLVCERKYPRREYYFAITMERSFQGPVLIGSSHGGVNIEDVAAESPEAIIKEPIDIEEGIKKEQALQLAQKMGFPPNIVESAAENMVKLYSLFLKYDATMIEINPMVEDSDGAVLCMDAKINFDSNSAYRQKKIFDLQDWTQEDERDKDAAKANLNYIGLDGNIGCLVNGAGLAMATMDIIKLHGGTPANFLDVGGGATVHQVTEAFKLITSDKKVLAILVNIFGGIMRCDVIAQGIVMAVKDLEIKIPVVVRLQGTRVDDAKALIADSGLKILACDDLDEAARMVVKLSEIVTLAKQAHVDVKFQLPI
Km ([1]; 0.6 mM ATP): 21900 ± 5800 µM
kcat ([1]; 0.6 mM ATP): 0.06 ± 0.01 s⁻¹
Km ([2]; 0.6 mM ATP): 19100 ± 2500 µM
kcat ([2]; 0.6 mM ATP): 0.65 ± 0.08 s⁻¹
